Consider 3 molecules from patent publication US20020147170A1 (priority 2000, published 2002).

Assay [1] concerns the target T1, MC-4 receptor (Homo sapiens, UniProt P32245, D146M).
T1 construct: expressed in transfected cells; host or cells: HEK293
The assay is described as follows: Basal level cAMP production. In kind it is cell-based. The settings on record: FIG. 2. The method, then:
As but one example, ligand-dependent activation of the melanocortin-4 (MC-4) receptor is assayed by measuring an increase in cAMP production (Huszar et al., Cell 88:131-141, (1997)).

Assay [2] addresses T1, MC-4 receptor. Put plainly: SMS-Luc luciferase reporter assay in HEK293 cells. Type of assay: cell-based. The procedure:
Briefly, HEK293 cells were cotransfected, as described above, with an expression vector encoding either the wild-type MC-4 receptor or the Asp146Met mutant MC-4 receptor and the reporter construct, SMS-Luc. As a negative control, cells were transfected with SMS-Luc and pcDNA1. Basal and ligand (αMHS) induced activity of the negative control, the wild-type MC-4 receptor, and the Asp146Met mutant MC-4 receptor were measured using the luciferase assay described above.
(In general: Reporter assays use an easily measured gene product as a stand-in for the process of interest.)

The next assay has as its system rat mu opioid receptor. The assay is described as follows: CRE-Luc luciferase reporter assay with forskolin stimulation. Type of assay: cell-based. The settings on record: CRE-Luc luciferase reporter, FIG. 4. The source says: (§1) The response element employed in this assay was the cAMP-response element (CRE), which is sensitive to Gαi mediated reductions in intracellular levels of cAMP. Signaling through the rat mu opioid receptor via Gαi inhibits adenylate cyclase, causing a decrease in intracellular cellular cAMP. Therefore, an increase in rat mu opioid receptor signaling induces a decrease in CRE mediated reporter activity.
Mutation induced Gαi-mediated decreases in intracellular cAMP were, prior to the present invention, more often measured by 1) stimulating cells with forskolin, which causes receptor-independent activation of adenylate cyclase and generates an intracellular pool of cAMP; 2) stimulating the cells with ligand; and 3) measuring the ligand-induced, receptor-dependent Gαi-mediated decrease in the intracellular cAMP pool (e.g., using a radioimmunoassay (e.g., New England Nuclear, Boston, Mass.)). […] Specifically, cells transfected with a CRE-Luc reporter construct (Stratagene, La Jolla, Calif.) and an expression vector encoding either a wild-type or a mutant rat mu opioid receptor were stimulated with 0.5 μM or 2 μM forskolin to increase the intracellular pool of cAMP. The basal (and ligand-induced) level of receptor activity was then measured using a standard luciferase assay (see FIG. 4). Coexpression of the receptor of interest with a luciferase reporter gene construct allows one to measure light emission as a readout for basal signaling.
This decrease in activity indicates an increase in the basal level activity of the mutant rat mu opioid receptor, because activation of the rat mu opioid receptor induces a decrease in CRE-mediated reporter activity (FIG. 4, compare 0.5 μM wild-type vs. 0.5 μM mutant and 2 μM wild-type vs. 2 μM mutant).

Assay [3] addresses T2, CCK-BR (Homo sapiens, UniProt P32239, L325E).
T2 construct: expressed in transfected cells; host or cells: HEK293
T2 sequence (P32239 1-447 L325E): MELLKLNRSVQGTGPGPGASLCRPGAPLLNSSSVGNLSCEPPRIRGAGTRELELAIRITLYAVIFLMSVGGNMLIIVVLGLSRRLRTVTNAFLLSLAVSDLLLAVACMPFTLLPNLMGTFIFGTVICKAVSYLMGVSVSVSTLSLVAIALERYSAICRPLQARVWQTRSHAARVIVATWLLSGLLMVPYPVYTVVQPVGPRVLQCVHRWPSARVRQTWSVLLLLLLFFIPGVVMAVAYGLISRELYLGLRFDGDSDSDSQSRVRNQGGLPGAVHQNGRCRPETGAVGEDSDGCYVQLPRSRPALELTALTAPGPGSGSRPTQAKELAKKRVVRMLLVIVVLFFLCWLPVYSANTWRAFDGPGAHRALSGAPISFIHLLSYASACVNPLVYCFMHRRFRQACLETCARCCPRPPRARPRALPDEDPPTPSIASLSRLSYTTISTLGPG
Put plainly: Luciferase reporter assay (SMS-Luc, SRE-Luc) in HEK293 cells. Type of assay: cell-based.
From the text: as §1
HEK293 cells were transfected (as described above) with SMS-Luc and an expression vector encoding any one of pcDNA1, wild-type CCK-BR, or Leu325Glu CCK-BR.

The subject of assay [4] is CCK-BR. The settings on record: COS-7 cells, absence of agonist; cited from earlier work.

T1 sequence (P32245 whole entry D146M): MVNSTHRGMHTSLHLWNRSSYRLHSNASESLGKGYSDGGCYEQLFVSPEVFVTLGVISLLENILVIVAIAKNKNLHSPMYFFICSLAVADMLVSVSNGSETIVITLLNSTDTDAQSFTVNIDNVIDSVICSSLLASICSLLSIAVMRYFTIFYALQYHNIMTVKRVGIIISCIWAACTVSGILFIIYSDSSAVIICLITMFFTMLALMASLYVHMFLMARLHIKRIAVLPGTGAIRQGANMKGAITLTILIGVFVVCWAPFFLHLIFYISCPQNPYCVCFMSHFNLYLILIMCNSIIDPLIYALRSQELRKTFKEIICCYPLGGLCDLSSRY

For “Asp146Met mutant MC-4 receptor: melanocortin-4 receptor with Asp at position 146 (DRY motif) replaced by Met”, the “constitutive activity by basal level cAMP production” value with MC-4 receptor [1] is “constitutive activity”. Besides, the “basal level activity vs wild-type” value with MC-4 receptor [2] is recorded as “higher basal level activity than its wild-type counterpart”.

For the molecule `C[C@@H](NC(=O)[C@@H](N)Cc1ccc(O)cc1)C(=O)NCC(=O)N(C)[C@@H](Cc1ccccc1)C(=O)NCCO` [DAMGO, [D—Ala^2—MePhe^4, Gly-ol^5]enkephalin], reference compound], the “effect of agonist stimulation of the receptor on forskolin induced activity” value in the assay with rat mu opioid receptor is recorded as “decrease in forskolin induced activity”.

B1: Leu325Glu CCK-BR mutant: human CCK-BR with point mutation Leu325Glu in the third intracellular loop (protein, UniProt P32239 1-447, looked up, variant L325E)
Gastrin/cholecystokinin type …: T2 sequence (P32239 1-447 L325E)
For the molecule B1, the “basal activity detected by the SMS and SRE response elements” value with CCK-BR [3] (SMS and SRE response elements, Gαq coupled, FIG. 3) is on record as “increase in basal activity”. Moreover, the “basal level activity vs wild-type CCK-BR” value in the assay with CCK-BR [3] (SMS-Luc, HEK293 cells) was “increased basal level activity”. Moreover, the “agonist-independent constitutive activity (inositol phosphate production)” value in the assay with CCK-BR [4] was “triggers constitutive production of inositol phosphates to levels exceeding wild-type CCK-BR”.
